The results in this text go back to US20090068207A1, “Compositions Containing Beta 2-Glycoprotein I-Derived Peptides for the Prevention and/or Treatment of Vascular Disease” (Vascular Biogenics Ltd., priority 2005, published 2009).

Assay type in all cases: in vivo
The test system of one assay is ApoE-KO mice. The experiment in a line: Aortic sinus lesion area after oral administration in ApoE-KO mice. The settings on record: End t = 16 wks; oral 50 μg/mouse; ApoE-KO mice; mean ± S.E. The text has this: (§1) Assessment of Atherosclerosis: Quantification of atherosclerotic fatty streak lesions was done by calculating the lesion size in the aortic sinus as previously described (16) and by calculating the lesion size in the aorta. Briefly, after perfusion with saline Tris EDTA, the heart and the aorta were removed from the animals and the peripheral fat cleaned carefully. The upper section of the heart was embedded in OCT medium (10.24% w/w polyvinyl alcohol; 4.26% w/w polyethylene glycol; 85.50% w/w nonreactive ingredients) and frozen. Every other section (10 μm thick) throughout the aortic sinus (400 μm) was taken for analysis. The distal portion of the aortic sinus was recognized by the three valve cusps that are the junctions of the aorta to the heart. […] Lesion areas per section were scored on a grid (17) by an observer counting unidentified, numbered specimens. The aorta was dissected from the heart and surrounding adventitious tissue was removed. Fixation of the aorta and Sudan staining of the vessels were performed as previously described (21).
In order to determine the protective effect of mucosal administration of β2GPI on development of atherosclerosis, adult ApoE-KO mice were treated with oral administration of human β2GPI. 20 week-old male ApoE-KO mice, having advanced atherosclerotic lesions were treated monthly with human β2GPI (50 μg/dose) or PBS (0.2 ml) in 5 oral administrations (by gavage, as described hereinabove) given every other day, for four months. Lesion area calculated from cryosections of the aortic sinus were compared between control untreated 20 week old mice, and mice following 16 weeks oral administration of β2GPI or PBS.
10-11 week-old male ApoE-KO mice, having early atherosclerotic lesions, were treated with 5 oral administrations (by gavage, as described hereinabove) given every other day of human β2GPI peptide S-4 (SEQ ID NO: 14) or human β2GPI (50 μg/dose) or PBS (0.2 ml). Lesion areas calculated from cryosections of the aortic sinus were compared between control untreated, human β2GPI treated and S-4 human β2GPI-derived peptide treated mice at 8 weeks following the last oral administration of the antigens, or of PBS.

Assay [1] relates to LDL-RD mice. The experiment in a line: Aortic sinus lesion area after nasal tolerance induction, Western diet. The settings on record: End, mean ± S.E.
Experimental: Nasal Tolerance: Nasal tolerance was induced by intranasal administration of oxidized LDL, β2GPI, β2GPI-derived peptides or HSP65, in a total volume of 10 μl PBS. Intranasal administration was performed on mildly sedated mice (12-16 weeks old), each mouse receiving 3 doses of antigen per dose, in the indicated concentrations, every other day. Atherogenesis was induced by 5 weeks of a Western diet initiated on the day following the last intranasal administration, or assessed (in Apo E KO mice) after 8 weeks on a chow diet. Controls received equal amounts of BSA and/or PBS, as indicated, in an identical regimen. Plasma was obtained for assessment of cholesterol and triglyceride levels from all mice, and the mice were sacrificed for evaluation of atherosclerosis, as described hereinbelow, after 5 weeks Western diet, or (in Apo E KO mice) after 8 weeks on a chow diet.
Assessment of Atherosclerosis: Quantification of atherosclerotic fatty streak lesions was done by calculating the lesion size in the aortic sinus as previously described (16) and by calculating the lesion size in the aorta. Briefly, after perfusion with saline Tris EDTA, the heart and the aorta were removed from the animals and the peripheral fat cleaned carefully. The upper section of the heart was embedded in OCT medium (10.24% w/w polyvinyl alcohol; 4.26% w/w polyethylene glycol; 85.50% w/w nonreactive ingredients) and frozen. Every other section (10 μm thick) throughout the aortic sinus (400 μm) was taken for analysis. The distal portion of the aortic sinus was recognized by the three valve cusps that are the junctions of the aorta to the heart. Sections were evaluated for fatty streak lesions after processing and staining with oil-red O, according to Paigen et al (Atherosclerosis, 1987; 68:231-40). Lesion areas per section were scored on a grid (17) by an observer counting unidentified, numbered specimens. The aorta was dissected from the heart and surrounding adventitious tissue was removed. Fixation of the aorta and Sudan staining of the vessels were performed as previously described (21).
Mice were bled prior to feeding (Time 0) and at the conclusion of the experiment (End) for determination of lipid profile. Atherosclerosis was assessed in heart and aorta as described above, 8 weeks after the last feeding. Mice were weighed every 2 weeks during the experiment. All mice were fed water ad libitum and a normal chow-diet containing 4.5% fat by weight (0.02% cholesterol), up to the final antigen exposure, and then a “Western” diet until sacrifice.
Thus, nasal exposure to a low dose and an exceedingly low dose of recombinant human HSP 65 were compared for their effectiveness in suppressing atherogenesis in LDL-RD mice. 58 male 12-16 week old LDL-RD mice were divided into 4 groups.
For assay [2], the system named is LDL-RD mice. Nature of the assay: Aortic sinus lesion area after oral administration, Western diet. The settings on record: for Aortic sinus lesion (μm^2): End, mean ± S.E. How it is done:
Oral Tolerance: For comparison, oral tolerance to plaque-associated molecules was induced by feeding […] of antigen every other day (for a detailed account of induction of oral tolerance, see U.S. patent application Ser. No. 09/806,400 to Shoenfeld et al filed Sep. 30, 1999), in a similar regimen to the nasal tolerance. LDL-RD mice were fed by a nasogastric tube, five doses (every other day) of human or bovine β2GPI in PBS in two different concentrations (500 and 50 μg/dose).
Oral tolerance to β2GPI-derived peptides, alone or in combination was induced by feeding 100 μg of the peptides (prepared in PBS, 0.2 ml), as detailed hereinabove, every other day for a total of 5 doses of 100 μg. One day following the last feeding, all mice were switched from chow-diet to an atherogenic “Western” diet and sacrificed five weeks later.
as §1
LDL-receptor deficient (LDL-RD; LDLR −/−) mice created on a C57BL/6 background develop accelerated atherosclerosis when fed a high cholesterol diet, but not when fed a regular chow diet. In order to determine whether mucosal administration of the plaque antigen β2GPI could suppress atherogenic processes, LDL-RD mice were fed low, oral tolerance inducing doses of human and bovine β2GPI, and the assessed for alterations in response to diet.

B1: B-β2GPI: head of Table 5; text and footnote say human β2GPI, 50 μg/mouse orally (protein, UniProt P02749 20-345, looked up)
Beta-2-glycoprotein 1: GRTCPKPDDLPFSTVVPLKTFYEPGEEITYSCKPGYVSRGGMRKFICPLTGLWPINTLKCTPRVCPFAGILENGAVRYTTFEYPNTISFSCNTGFYLNGADSAKCTEEGKWSPELPVCAPIICPPPSIPTFATLRVYKPSAGNNSLYRDTAVFECLPQHAMFGNDTITCTTHGNWTKLPECREVKCPFPSRPDNGFVNYPAKPTLYYKDKATFGCHDGYSLDGPEEIECTKLGNWSAMPSCKASCKVPVKKATVVYQGERVKIQEKFKNGMLHGDKVSFFCKNKEKKCSYTEDAQCIDGTIEVPKCFKEHSSLAFWKTDASDVKPC
Consider B1, for which the “Aortic sinus lesion (μm^2)” value in the assay with ApoE-KO mice came out at 221042 ± 14472 μm^2.

B2: HSP65: recombinant human HSP 65 according to Example 2 and Table 2 (protein, UniProt P10809 27-573, looked up)
60 kDa heat shock protein, …: AKDVKFGADARALMLQGVDLLADAVAVTMGPKGRTVIIEQSWGSPKVTKDGVTVAKSIDLKDKYKNIGAKLVQDVANNTNEEAGDGTTTATVLARSIAKEGFEKISKGANPVEIRRGVMLAVDAVIAELKKQSKPVTTPEEIAQVATISANGDKEIGNIISDAMKKVGRKGVITVKDGKTLNDELEIIEGMKFDRGYISPYFINTSKGQKCEFQDAYVLLSEKKISSIQSIVPALEIANAHRKPLVIIAEDVDGEALSTLVLNRLKVGLQVVAVKAPGFGDNRKNQLKDMAIATGGAVFGEEGLTLNLEDVQPHDLGKVGEVIVTKDDAMLLKGKGDKAQIEKRIQEIIEQLDVTTSEYEKEKLNERLAKLSDGVAVLKVGGTSDVEVNEKKDRVTDALNATRAAVEEGIVLGGGCALLRCIPALDSLTPANEDQKIGIEIIKRTLKIPAMTIAKNAGVEGSLIVEKIMQSSSEVGYDAMAGDFVNMVEKGIIDPTKVVRTALLDAAGVASLLTTAEVVVTEIPKEEKDPGMGAMGGMGGGMGGGMF
Take B2: the “Aortic sinus lesion (μm^2)” value in the assay with LDL-RD mice [1] (intranasal 1 μg/mouse) was found to be 17109 ± 2053 μm^2; with LDL-RD mice [1] (intranasal 10 μg/mouse), 22292 ± 2691 μm^2.

B3: B-β2 GPI: bovine beta2-glycoprotein I purified from serum (protein, UniProt P17690 20-345, looked up)
Beta-2-glycoprotein 1: GRTCPKPDELPFSTVVPLKRTYEPGEQIVFSCQPGYVSRGGIRRFTCPLTGLWPINTLKCMPRVCPFAGILENGTVRYTTFEYPNTISFSCHTGFYLKGASSAKCTEEGKWSPDLPVCAPITCPPPPIPKFASLSVYKPLAGNNSFYGSKAVFKCLPHHAMFGNDTVTCTEHGNWTQLPECREVRCPFPSRPDNGFVNHPANPVLYYKDTATFGCHETYSLDGPEEVECSKFGNWSAQPSCKASCKLSIKRATVIYEGERVAIQNKFKNGMLHGQKVSFFCKHKEKKCSYTEDAQCIDGTIEIPKCFKEHSSLAFWKTDASDVKPC
Consider B3, for which the “Aortic sinus lesion (μm^2)” value in the assay with LDL-RD mice [2] (oral 50 μg) is 27422 ± 3007 μm^2; with LDL-RD mice [2] (oral 500 μg), 20781 ± 2290 μm^2. Besides, the “reduction of atherosclerosis as compared with BSA-fed controls” value in the assay on LDL-RD mice [2] (oral 50 μg/dose) is 57%; in the assay with LDL-RD mice [2] (oral 500 μg/dose), 43%.
